Experiments:
[1] = biological target: T1, IFNα receptor on GloResponse ISRE-luc2P/HEK293 cells (UniProt P17181); assay: cell-based or functional assay
T1 sequence (looked up) 1: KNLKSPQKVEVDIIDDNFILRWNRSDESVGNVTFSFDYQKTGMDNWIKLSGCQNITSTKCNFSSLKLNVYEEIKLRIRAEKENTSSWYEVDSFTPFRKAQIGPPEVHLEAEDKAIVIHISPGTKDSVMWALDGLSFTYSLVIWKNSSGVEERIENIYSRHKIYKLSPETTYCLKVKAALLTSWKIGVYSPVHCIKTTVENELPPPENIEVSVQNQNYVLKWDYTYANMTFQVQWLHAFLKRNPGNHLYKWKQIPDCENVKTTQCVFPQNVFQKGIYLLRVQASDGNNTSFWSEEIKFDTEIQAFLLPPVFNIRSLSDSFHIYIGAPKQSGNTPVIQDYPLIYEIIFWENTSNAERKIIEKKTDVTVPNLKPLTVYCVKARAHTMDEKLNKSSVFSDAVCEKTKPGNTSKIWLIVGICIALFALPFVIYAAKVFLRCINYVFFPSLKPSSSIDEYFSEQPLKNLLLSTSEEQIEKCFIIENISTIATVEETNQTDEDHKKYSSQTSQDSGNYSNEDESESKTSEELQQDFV
T1 sequence (looked up) 2: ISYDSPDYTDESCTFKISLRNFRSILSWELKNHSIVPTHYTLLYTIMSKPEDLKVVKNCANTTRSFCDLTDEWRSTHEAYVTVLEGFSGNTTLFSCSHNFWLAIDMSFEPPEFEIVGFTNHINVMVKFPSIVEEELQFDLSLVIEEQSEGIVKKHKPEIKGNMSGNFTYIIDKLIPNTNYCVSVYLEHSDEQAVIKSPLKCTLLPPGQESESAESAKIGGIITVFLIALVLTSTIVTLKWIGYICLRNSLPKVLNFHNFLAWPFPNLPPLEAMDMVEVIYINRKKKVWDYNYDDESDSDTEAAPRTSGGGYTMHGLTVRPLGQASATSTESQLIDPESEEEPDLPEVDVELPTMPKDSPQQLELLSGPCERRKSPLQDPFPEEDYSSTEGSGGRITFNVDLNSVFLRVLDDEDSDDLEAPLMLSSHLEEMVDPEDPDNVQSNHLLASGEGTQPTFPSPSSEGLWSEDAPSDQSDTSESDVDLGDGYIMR

[2] = biological target: IL-2Rβ/IL-2Rγ receptor subunits on PathHunter U2OS IL-2Rβ/IL-2Rγ/(IL-2Rα) cells (UniProt P14784); assay: cell-based or functional assay

Substance	EC50, ISRE-luc2P/HEK293 luciferase reporter, +MMP9 [1] [nM]	EC50 of IL-15-induced IL-2Rβ/IL-2Rγ dimerisation (PathHunter U2OS chemiluminescence), +MMP-9 [2] [nM]	further results
c9G4-PVGLIG-hIL-15 cleaved by MMP-9 (released hIL-15) (from UniProt P40933 49-162) (ligand)	–	2.07	–
H16/L16-PVGLIG-hIFNα2a cleaved by MMP-9 (released hIFNα2a) (from UniProt P01563 24-188) (ligand)	–	–	EC50, ISRE-luc2P/HEK293 luciferase reporter, +MMP9, no pre incubation of the cells with H16/L16 antibody [1]: 0.02 nM; EC50, ISRE-luc2P/HEK293 luciferase reporter, +MMP9, pre incubation of the cells with H16/L16 antibody (to saturate IGF1-R binding sites) [1]: 0.02 nM
Recombinant human IL-15 (from UniProt P40933 49-162) (ligand)	–	0.71	EC50 of IL-15-induced IL-2Rβ/IL-2Rγ dimerisation (PathHunter U2OS chemiluminescence), -MMP-9 [2]: 0.72 nM
H16/L16-PVGLIG-hIL-15 cleaved by MMP-9 (released hIL-15) (from UniProt P40933 49-162) (ligand)	–	2.84	–
NHS76-PVGLIG-hIFNα2a (from UniProt P01563 23-188)	–	–	EC50, ISRE-luc2P/HEK293 luciferase reporter, -MMP9 [1]: 5.33 nM

Further lines, with some results ahead:

EC50, ISRE-luc2P/HEK293 luciferase reporter, +MMP9 [1] [nM]	EC50 of IL-15-induced IL-2Rβ/IL-2Rγ dimerisation (PathHunter U2OS chemiluminescence), +MMP-9 [2] [nM]	Substance	further results
0.03	–	NHS76-PVGLIG-hIFNα2a cleaved by MMP-9 (released hIFNα2a) (from UniProt P01563 24-188) (ligand)	–
0.02	–	c9G4-PVGLIG-hIFNα2a cleaved by MMP-9 (released hIFNα2a) (from UniProt P01563 24-188) (ligand)	–
0.05	–	Recombinant human IFNα2a (from UniProt P01563 24-188) (ligand)	EC50, ISRE-luc2P/HEK293 luciferase reporter, -MMP9 [1]: 0.08 nM
–	8.84	NHS76-PVGLIG-hIL-15 cleaved by MMP-9 (released hIL-15) (from UniProt P40933 49-162) (ligand)	–

From US20200308242A1
